Source: US20210130436A1 (published 2021)

B1: A26E/Q27R/E35D/M47L/N48Y/L85Q CD80 IgV-Fc (Fc fusion, not shown: a dimerising Fc or GST)
chain: VIHVTKEVKEVATLSCGHNVSVEELERTRIYWQKDKKMVLTMMSGDLYIWPEYKNRTIFDITNNLSIVILALRPSDEGTYECVVQKYEKDAFKREHLAEVTLSVKAD
B2: E35D/M47I/T62S/L85Q/E88D CD80 IgV-Fc (Fc fusion, not shown: a dimerising Fc or GST)
chain: VIHVTKEVKEVATLSCGHNVSVEELAQTRIYWQKDKKMVLTMMSGDINIWPEYKNRTIFDISNNLSIVILALRPSDEGTYECVVQKYDKDAFKREHLAEVTLSVKAD
B3: H18Y/E35D/M47I/V68M/A71G/R94L CD80 IgV-Fc (Fc fusion, not shown: a dimerising Fc or GST)
chain: VIHVTKEVKEVATLSCGYNVSVEELAQTRIYWQKDKKMVLTMMSGDINIWPEYKNRTIFDITNNLSIMILGLRPSDEGTYECVVLKYEKDAFKLEHLAEVTLSVKAD
B4: variant CD80 IgV-Fc E24D/E35D/M47L/V68M/E95V/L97Q (Fc fusion, not shown: small tags and cut ends; a dimerising Fc or GST)
chain: VIHVTKEVKEVATLSCGHNVSVEDLAQTRIYWQKDKKMVLTMMSGDLNIWPEYKNRTIFDITNNLSIMILALRPSDEGTYECVVLKYEKDAFKRVHQAEVTLSVKAD
B5: variant CD80 IgV-Fc E35D/D46E/M47L/V68M/T79M/L85M/L97Q (Fc fusion, not shown: small tags and cut ends; a dimerising Fc or GST)
chain: VIHVTKEVKEVATLSCGHNVSVEELAQTRIYWQKDKKMVLTMMSGELNIWPEYKNRTIFDITNNLSIMILALRPSDEGMYECVVMKYEKDAFKREHQAEVTLSVKAD
B6: variant CD80 IgV-Fc E35D/M47L/V68M/E95V/L97Q (Fc fusion, not shown: small tags and cut ends; a dimerising Fc or GST)
chain: VIHVTKEVKEVATLSCGHNVSVEELAQTRIYWQKDKKMVLTMMSGDLNIWPEYKNRTIFDITNNLSIMILALRPSDEGTYECVVLKYEKDAFKRVHQAEVTLSVKAD
B7: variant CD80 IgV-Fc H18Y/E35D/M38I/M47L/V68M/L85M (Fc fusion, not shown: small tags and cut ends; a dimerising Fc or GST)
chain: VIHVTKEVKEVATLSCGYNVSVEELAQTRIYWQKDKKIVLTMMSGDLNIWPEYKNRTIFDITNNLSIMILALRPSDEGTYECVVMKYEKDAFKREHLAEVTLSVKAD
B8: WT CD80 ECD-Fc (Fc fusion, not shown: a dimerising Fc or GST)
chain: VIHVTKEVKEVATLSCGHNVSVEELAQTRIYWQKEKKMVLTMMSGDMNIWPEYKNRTIFDITNNLSIVILALRPSDEGTYECVVLKYEKDAFKREHLAEVTLSVKADFPTPSISDFEIPTSNIRRIICSTSGGFPEPHLSWLENGEELNAINTTVSQDPETELYAVSSKLDFNMTTNHSFMCLIKYGHLRVNQTFNWNTTKQEHFPDN
notes: The label 'H22.6' is not explained; also called WT CD80 ECD-Fc H22.6
B9: variant CD80 IgV-Fc (inert) H18V/A26K/E35D/M47L/V68M/A71G (Fc fusion)
chain: VIHVTKEVKEVATLSCGVNVSVEELKQTRIYWQKDKKMVLTMMSGDLNIWPEYKNRTIFDITNNLSIMILGLRPSDEGTYECVVLKYEKDAFKREHLAEVTLSVKAD
notes: not shown: inert human IgG1 Fc
B10: variant CD80 IgV-Fc (inert) H18V/A26P/E35D/M47L/V68M/A71G (Fc fusion)
chain: VIHVTKEVKEVATLSCGVNVSVEELPQTRIYWQKDKKMVLTMMSGDLNIWPEYKNRTIFDITNNLSIMILGLRPSDEGTYECVVLKYEKDAFKREHLAEVTLSVKAD
notes: as for B9
B11: variant CD80 IgV-Fc (inert) H18V/A26Q/E35D/M47V/V68L/A71G/D90G (Fc fusion)
chain: VIHVTKEVKEVATLSCGVNVSVEELQQTRIYWQKDKKMVLTMMSGDVNIWPEYKNRTIFDITNNLSILILGLRPSDEGTYECVVLKYEKGAFKREHLAEVTLSVKAD
notes: as for B9
B12: variant CD80 IgV-Fc (inert) H18Y/A26P/E35D/M47I/V68M/A71G (Fc fusion)
chain: VIHVTKEVKEVATLSCGYNVSVEELPQTRIYWQKDKKMVLTMMSGDINIWPEYKNRTIFDITNNLSIMILGLRPSDEGTYECVVLKYEKDAFKREHLAEVTLSVKAD
notes: as for B9
B13: variant CD80 IgV-Fc (inert) H18Y/A26P/E35D/M47Y/V68I/A71G/D90G (Fc fusion)
chain: VIHVTKEVKEVATLSCGYNVSVEELPQTRIYWQKDKKMVLTMMSGDYNIWPEYKNRTIFDITNNLSIIILGLRPSDEGTYECVVLKYEKGAFKREHLAEVTLSVKAD
notes: as for B9
B14: variant CD80 IgV-Fc (inert) H18Y/E35D/M47V/V68L/A71G/D90G (Fc fusion)
chain: VIHVTKEVKEVATLSCGYNVSVEELAQTRIYWQKDKKMVLTMMSGDVNIWPEYKNRTIFDITNNLSILILGLRPSDEGTYECVVLKYEKGAFKREHLAEVTLSVKAD
notes: as for B9
B15: variant CD80 IgV-Fc (inert) H18Y/E35D/M47V/V68M/A71G (Fc fusion)
chain: VIHVTKEVKEVATLSCGYNVSVEELAQTRIYWQKDKKMVLTMMSGDVNIWPEYKNRTIFDITNNLSIMILGLRPSDEGTYECVVLKYEKDAFKREHLAEVTLSVKAD
notes: Fc fusions are dimeric by the general description; not shown: inert human IgG1 Fc
B16: variant CD80 IgV-Fc E35D/M47L/A71G/L97Q (Fc fusion, not shown: a dimerising Fc or GST)
chain: VIHVTKEVKEVATLSCGHNVSVEELAQTRIYWQKDKKMVLTMMSGDLNIWPEYKNRTIFDITNNLSIVILGLRPSDEGTYECVVLKYEKDAFKREHQAEVTLSVKAD
B17: variant CD80 IgV-Fc E35D/D46V/M47I/A71G/F92V (Fc fusion, not shown: a dimerising Fc or GST)
chain: VIHVTKEVKEVATLSCGHNVSVEELAQTRIYWQKDKKMVLTMMSGVINIWPEYKNRTIFDITNNLSIVILGLRPSDEGTYECVVLKYEKDAVKREHLAEVTLSVKAD
B18: wild-type CD80 ECD-Fc (R&D Systems) (Fc fusion)
chain: VIHVTKEVKEVATLSCGHNVSVEELAQTRIYWQKEKKMVLTMMSGDMNIWPEYKNRTIFDITNNLSIVILALRPSDEGTYECVVLKYEKDAFKREHLAEVTLSVKADFPTPSISDFEIPTSNIRRIICSTSGGFPEPHLSWLENGEELNAINTTVSQDPETELYAVSSKLDFNMTTNHSFMCLIKYGHLRVNQTFNWNTTKQEHFPDN
notes: This is a commercial protein; also called WT CD80 ECD-Fc (R&D); unmodified CD80-ECD-Fc fusion molecule; not shown: Bought protein (R&D Systems)

Columns and labels:
human CD28 [1] = target: T1, human CD28 (human, UniProt P10747 19-220); assay: flow cytometry, Jurkat/IL2 reporter cells (endogenous CD28), 33.3 nM, PE anti-human Fc
T1 construct: whole, on cells; Endogenous CD28 of Jurkat/IL2 reporter cells

human CTLA-4 [2] = target: T2, human CTLA-4 (human, UniProt P16410 36-223); assay: flow cytometry, CHO cells stably expressing huCTLA4, 33.3 nM, PE anti-human Fc
T2 construct: whole, on cells; also called huCTLA4
T2 sequence (P16410 36-223): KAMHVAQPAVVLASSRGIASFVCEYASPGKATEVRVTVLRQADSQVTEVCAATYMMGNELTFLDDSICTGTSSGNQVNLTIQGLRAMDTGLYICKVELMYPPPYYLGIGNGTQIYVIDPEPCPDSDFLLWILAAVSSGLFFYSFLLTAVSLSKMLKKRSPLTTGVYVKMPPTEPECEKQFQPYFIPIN

human PD-L1 [3] = target: T3, human PD-L1 (human, UniProt Q9NZQ7 19-290); assay: flow cytometry, CHO cells stably expressing huPD-L1, 33.3 nM, PE anti-human Fc
T3 construct: whole, on cells; also called huPD-L1
T3 sequence (Q9NZQ7 19-290): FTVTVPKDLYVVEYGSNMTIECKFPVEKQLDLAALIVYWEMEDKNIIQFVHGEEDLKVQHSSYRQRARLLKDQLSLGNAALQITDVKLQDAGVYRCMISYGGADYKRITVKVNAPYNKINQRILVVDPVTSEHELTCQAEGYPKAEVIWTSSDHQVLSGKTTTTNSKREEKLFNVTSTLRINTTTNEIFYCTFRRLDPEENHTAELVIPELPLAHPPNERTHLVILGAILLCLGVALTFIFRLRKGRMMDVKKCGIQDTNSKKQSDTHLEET

[4] = target: T4, human CTLA4 (huCTLA4), full-length, stably expressed on CHO cells (human, UniProt P16410 36-223); assay: flow cytometry, CHO cells expressing huCTLA4
T4 construct: whole, on cells

[5] = target: T5, human PD-L1 (huPD-L1), full-length, stably expressed on CHO cells (human, UniProt Q9NZQ7 19-290); assay: flow cytometry, CHO cells expressing huPD-L1
T5 construct: whole, on cells

[6] = target: T5, human PD-L1 (huPD-L1), full-length, …; assay: flow cytometry; MFI on PD-L1 CHO cells over MFI on Jurkat cells (CD28)
[7] = target: T4, human CTLA4 (huCTLA4), full-length, …; assay: flow cytometry, CHO cells expressing huCTLA4; MFI against WT CD80 of the table
[8] = target: T5, human PD-L1 (huPD-L1), full-length, …; assay: flow cytometry, CHO cells expressing huPD-L1; MFI against WT CD80 of the table
human PD-L1 [9] = target: T6, human PD-L1 (human, UniProt Q9NZQ7 19-290); assay: flow cytometry MFI relative to WT CD80 IgV-Fc, CHO/huPD-L1 cells, 33.3 nM
T6 construct: whole, on cells; CHO cells stably expressing huPD-L1; also called huPD-L1
T6 sequence (Q9NZQ7 19-290): as above

human CTLA-4 [10] = target: T7, human CTLA-4 (human, UniProt P16410 36-223); assay: flow cytometry MFI relative to WT CD80 IgV-Fc, CHO/huCTLA-4 cells, 33.3 nM
T7 construct: whole, on cells; CHO cells stably expressing huCTLA4; also called huCTLA4
T7 sequence (P16410 36-223): as the sequence (P16410 36-223) above

human CD28 [11] = target: T8, human CD28 (human, UniProt P10747 19-220); assay: flow cytometry MFI relative to WT CD80 IgV-Fc, Jurkat cells (CD28), 33.3 nM
T8 construct: whole, on cells; Jurkat/IL2 reporter cells, which endogenously express CD28

human PD-L1 [12] = target: T6, human PD-L1; assay: flow cytometry, MFI on CHO/huPD-L1 cells divided by MFI on Jurkat cells (CD28), 33.3 nM
human PD-L1 [13] = target: T6, human PD-L1; assay: flow cytometry, CHO cells stably expressing huPD-L1, 33.3 nM Fc fusion, PE anti-human Fc
human CTLA-4 [14] = target: T7, human CTLA-4; assay: flow cytometry, CHO cells stably expressing huCTLA-4, 33.3 nM Fc fusion, PE anti-human Fc
human CD28 [15] = target: T8, human CD28; assay: flow cytometry, Jurkat/IL2 reporter cells (endogenous CD28), 33.3 nM Fc fusion, PE anti-human Fc
[16] = target: T9, human CTLA-4 (CTLA4), full-length, expressed on the surface of CHO cells (human, UniProt P16410 36-223); assay: flow cytometry, CHO cells stably expressing human CTLA-4, 33.3 nM Fc fusion, PE anti-human Fc
T9 construct: also called huCTLA4

[17] = target: T10, human CD28, endogenously expressed on Jurkat/IL2 reporter cells (human, UniProt P10747 19-220); assay: flow cytometry, Jurkat/IL2 reporter cells (endogenous CD28), 33.3 nM Fc fusion, PE anti-human Fc
T10 construct: This is the endogenous CD28 of Jurkat cells

T4 sequence (P16410 36-223): as above
T5 sequence (Q9NZQ7 19-290): as the sequence (Q9NZQ7 19-290) above
T9 sequence (P16410 36-223): as the sequence (P16410 36-223) above

Binder | Fold change to WT CD80 (human PD-L1 [9]) [fold] | Fold change to WT CD80 (human CTLA-4 [10]) [fold] | Fold change to WT CD80 (human CD28 [11]) [fold] | Ratio of PDL1:CD28 (human PD-L1 [12]) [ratio] | MFI at 33.3 nM (human PD-L1 [13]) [MFI] | MFI at 33.3 nM (human CTLA-4 [14]) [MFI] | MFI at 33.3 nM (human CD28 [15]) [MFI] | other results
B1 |  |  |  |  |  |  |  | MFI at 33.3 nM (human CD28 [1]): 78 MFI
B2 |  |  |  |  |  |  |  | MFI at 33.3 nM (human CTLA-4 [2]): 8910 MFI; MFI at 33.3 nM (human PD-L1 [3]): 8420 MFI
B3 |  |  |  |  |  |  |  | MFI at 33.3 nM (human PD-L1 [3]): 14500 MFI; MFI at 33.3 nM (human CD28 [1]): 1900 MFI
B4 |  |  |  |  |  |  |  | MFI at 33.3 nM [4]: 15500 MFI; MFI at 33.3 nM [5]: 18600 MFI; Ratio of PDL1:CD28 [6]: 1270 ratio; Fold change to WT CD80 [7]: 8.8 fold; Fold change to WT CD80 [8]: 362 fold
B5 |  |  |  |  |  |  |  | MFI at 33.3 nM [4]: 96 MFI; MFI at 33.3 nM [5]: 4620 MFI; Ratio of PDL1:CD28 [6]: 325 ratio; Fold change to WT CD80 [7]: 0.1 fold; Fold change to WT CD80 [8]: 89.7 fold
B6 |  |  |  |  |  |  |  | MFI at 33.3 nM [4]: 15000 MFI; MFI at 33.3 nM [5]: 18600 MFI; Ratio of PDL1:CD28 [6]: 1300 ratio; Fold change to WT CD80 [7]: 8.5 fold; Fold change to WT CD80 [8]: 361 fold
B7 |  |  |  |  |  |  |  | MFI at 33.3 nM [5]: 3590 MFI; Ratio of PDL1:CD28 [6]: 215 ratio; Fold change to WT CD80 [8]: 69.7 fold
B8 |  |  |  |  |  |  |  | MFI at 33.3 nM (human CD28 [1]): 30 MFI
B9 | 408 | 16.6 | 35.7 | 18.5 | 67300 | 22900 | 3640 | 
B10 | 318 | 11.7 | 24 | 21.4 | 52400 | 16200 | 2450 | 
B11 | 204 | 12.8 | 30.6 | 10.7 | 33600 | 17700 | 3130 | 
B12 | 330 | 8.8 | 50.2 | 10.6 | 54500 | 12200 | 5120 | 
B13 | 165 | 6 | 17.8 | 15 | 27300 | 8280 | 1820 | 
B14 | 290 | 11.9 | 25 | 18.8 | 47900 | 16500 | 2550 | 
B15 | 393 | 17.1 | 31.6 | 20.1 | 64900 | 23600 | 3230 | 
B16 |  |  |  |  |  |  |  | MFI at 33.3 nM [16]: 226000 MFI; MFI at 33.3 nM [17]: 300 MFI
B17 |  |  |  |  |  |  |  | MFI at 33.3 nM [17]: 7540 MFI
B18 |  |  |  |  |  |  |  | MFI at 33.3 nM [17]: 7630 MFI
